Experiments:
[1] = biological target: GluA2-γ2_(FRET) (GluA2_(FRET) fused through a GGS linker to full-length mouse TARPγ2) (rat | mouse) (UniProt O88602); experiment: FRET or BRET; single-molecule FRET between Alexa-555 and Alexa-647 on Cys467 of two subunits; receptors from detergent-solubilised HEK293T cells held on the slide by antibody (in situ immunoprecipitation); 1 mM Glu + 100 µM CTZ
[2] = biological target: GluA2-γ2_(FRET) (GluA2_(FRET) fused through a GGS linker to full-length mouse TARPγ2) (rat | mouse) (UniProt O88602); experiment: FRET or BRET; single-molecule FRET between Alexa-555 and Alexa-647 on Cys467 of two subunits; receptors from detergent-solubilised HEK293T cells held on the slide by antibody (in situ immunoprecipitation); 1 mM Glu + 100 µM GYKI-52466

FRET efficiency (highest-occurring state, with CTZ) [1]: 0.93
FRET efficiency (highest-occurring state, with GYKI-52466) [2]: 0.82
Substance: GluA2-γ2_(FRET) (GluA2_(FRET) fused through a GGS linker to full-length mouse TARPγ2) (from UniProt O88602 1-323) (receptor)
